In patent publication US20230295310A1 (ABCELLERA BIOLOGICS, published 2023):
Positions count from the first letter of the chain named.

B1: mAb 194 (antibody, V domains shown)
VH: QEQLVESGGGVVQPGGSLRLSCAASGFIFSGYGMHWVRQAPGKGLEWVAIIWYNGRKTYYAESVKGRFTISRDNSKNTLSLQMNSLRVEDTAVYYCTAGQGYNWFDPWGQGTLVTVSS
VL: EIVMTQSPATLSVSPGERATLSCRASQSVSSNLAWYQQKPGQAPRLLIYGASTRATGIPARFSGSGSGTEFTLTISSLQSEDFAVYYCQQFNAWPLTFGGGTKMEIK
notes: VH/VL only
B2: mAb 195 (antibody, V domains shown)
VH: QEQLVESGGGVVQSGRSLRLSCVASGFKFSGYGMHWVRQAPGKGLEWVAIIYYDGKNKYYADSVKGRFTISRDNSKNTLYLQMNSLRAEDTAVYYCTRGAGYNWFDSWGQGTLVTVSS
VL: B1 VL with S30R, S31N, A51V, G57A, I58F, F91Y, A93N, M104V
notes: VH/VL only
B3: mAb 196 (antibody, V domains shown)
VH: B2 VH with I70V
VL: B1 VL with S30R, S31N, A51V, G57A, I58F, F91Y, A93N, M104V
notes: VH/VL only
B4: mAb 212 (antibody, V domains shown)
VH: EVQLLESGGGLVQPGGSLRLSCAASGFTFSNYAMNWVRQAPGKGLEWVSAISGSRSNTYYADSVKGRFTISRDNSKNTLYLQMNSLRAEDTGVYYCAKGAYSKYPYYYYMDVWGKGTTVTVSS
VL: EIVMTQSPATLSLSPGERATLSCRASQSVSSSYLSWYQQKPGQAPRLLIYGASTRAIGIPARFSGSGSGTDFTLTISSLQAEDFAVYYCQQDDNLPWTFGQGTKVEIK
notes: VH/VL only
B5: mAb 214 (antibody, V domains shown)
VH: B4 VH with G92A
VL: B4 VL
notes: VH/VL only
B6: mAb 213 (antibody, V domains shown)
VH: B1 VH with I28T, A98T, Q100K
VL: B1 VL
notes: VH/VL only
B7: mAb 219 (antibody, V domains shown)
VH: B1 VH with I28M, A61T
VL: B1 VL
notes: VH/VL only
B8: mAb 220 (antibody, V domains shown)
VH: B1 VH with A23V, I28T, A98T, Q100K
VL: B1 VL
notes: VH/VL only
B9: mAb 225 (antibody, V domains shown)
VH: B1 VH with I28K, S85R
VL: B1 VL
notes: VH/VL only
B10: mAb 228 (antibody, V domains shown)
VH: EVQLLESGGGLVQPGGSLRLSCAASGFTFSNYAMNWVRQAPGKGLEWVSTISGSGGGKYYADSVKGRFTISRDNSKNTLYLHMNSLRAEDTAVYYCAKDPVQDRYYFYYYYMDVWGKGTTVTVSS
VL: EIVLTQSPDFQSVTPKEKVTITCRASQSIGSSLHWYQQKPDQSPKLLIKYASQSISGVPSRFSGSGSGTDFTLTINSLEAEDAAAYYCHQSSSLPHTFGQGTKLEIK
notes: VH/VL only
B11: mAb 230 (antibody, V domains shown)
VH: B10 VH with N31S, N35S, T50S, G57S, K58R, H82Q
VL: B10 VL
notes: VH/VL only
B12: mAb 229 (antibody, V domains shown)
VH: B2 VH with S14P, V23A, K28T, G31S, D54N, N57K, Y59D, T97A, A100L, S107P
VL: B10 VL with I55F, A85T, H96Y
notes: VH/VL only
B13: mAb 237 (antibody, V domains shown)
VH: EVQLLESGGDLVQPGGSLRLTCAASGFTFRSYAMNWVRQAPGKGLEWVSTISSRGDTTNYADSVKGRFTISRDTSKNTLYLQMDNLRADDTAVYYCSKMFSYYYYYMDVWGKGTTVTVSS
VL: SYELTQPLSVSVALGQTARITCGGNNIGSKDVHWYQQKPGQAPVLVIYRDSNRPSGIPERFSGSNSGNTATLTISRAQAGDEADYYCQVWDSRTAVFGGGTQLTAL
notes: VH/VL only
B14: mAb 238 (antibody, V domains shown)
VH: B13 VH
VL: B13 VL with R93S
notes: VH/VL only
B15: mAb 240 (antibody, V domains shown)
VH: B2 VH with E2G, Q3K, S14P, K28T, G42N, M83L, T97V, A100P, S107P
VL: B10 VL with S28N, Y50H, I55F, A85T, H96Y
notes: VH/VL only
B16: mAb 248 (antibody, V domains shown)
VH: B2 VH with E2V, Q3K, S14P, K28T, A61V, M83L, T97V, A100P, S107H, S117A
VL: B10 VL with I55F, A85T, H96Y
notes: VH/VL only
B17: mAb 250 (antibody, V domains shown)
VH: QVQLVESGGGVVQPGRSLRLSCAASGFTFSTYGMHWVRQAPGKGLEWVAVLWSDGRSKYYADSVQGRFTISRDNSKNTLFLQMSSLRAEDTAVYYCAREPYYDFWSGYYTGYMDVWGKGTTVTVSS
VL: DIQMTQSPSSLSASVGDRVTITCRASQGIRNDLGWYQQKPGKAPKRLIYAASSLQGGVPSRFSGSGSGTEFTLTISSLQPEDFATYYCLQHNSYPRTFGQGTKVEIK
notes: VH/VL only
B18: mAb 251 (antibody, V domains shown)
VH: EVQILESGGGLVQPGGSLRLSCVASGFTFRSYVMSWVRRAPGRGLEWVSGISASGGNTYYADSVKGRFTISRDNSKNTLFLQMNGLRAEDTAVYYCAKLFSYYYYFMDVWGKGTTVTVSS
VL: B13 VL with R76G, S92R
notes: VH/VL only
B19: mAb 252 (antibody, V domains shown)
VH: B18 VH with A53T
VL: B13 VL with R76G, S92R
notes: VH/VL only
B20: mAb 256 (antibody, V domains shown)
VH: QVQLQQSGPGLVKPSQTLSLTCAISGDSVSSNYASWNWIRQSPSRGLEWLGRTYYRSKWYNDFAVSVKSRVTINADTSKNQFSLHLSSVTPEDTAIYFCAREANGRGYFYYMDVWGKGTTVTVSS
VL: B10 VL with D41V, D70V, Y87F, S93G, L94S, Q100G, L104V
notes: VH/VL only
B21: mAb 255 (antibody, V domains shown)
VH: B20 VH with L4V, N32K, V71I
VL: B10 VL with D70V, Y87F, S93G, L94S, Q100G, L104V
notes: VH/VL only

molecular target: T1, human CD3 expressed on cells (Jurkat cells; human primary T cells) (human, UniProt P07766 23-207; P04234 22-171; P09693 23-182); experiment: flow cytometry, 25 nM, Jurkat cells
T1 construct: whole, on cells
T1 sequence (P07766 23-207, chain 1 of 3): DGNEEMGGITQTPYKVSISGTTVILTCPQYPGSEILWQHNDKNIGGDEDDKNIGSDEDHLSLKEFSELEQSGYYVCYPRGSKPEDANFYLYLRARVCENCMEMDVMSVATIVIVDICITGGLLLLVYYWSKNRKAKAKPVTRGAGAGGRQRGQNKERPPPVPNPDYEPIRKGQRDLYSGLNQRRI
T1 sequence (P04234 22-171, chain 2 of 3): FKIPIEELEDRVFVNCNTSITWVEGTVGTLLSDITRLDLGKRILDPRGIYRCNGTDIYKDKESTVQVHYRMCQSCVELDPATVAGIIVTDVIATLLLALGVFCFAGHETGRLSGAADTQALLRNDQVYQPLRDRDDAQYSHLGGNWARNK
T1 sequence (P09693 23-182, chain 3 of 3): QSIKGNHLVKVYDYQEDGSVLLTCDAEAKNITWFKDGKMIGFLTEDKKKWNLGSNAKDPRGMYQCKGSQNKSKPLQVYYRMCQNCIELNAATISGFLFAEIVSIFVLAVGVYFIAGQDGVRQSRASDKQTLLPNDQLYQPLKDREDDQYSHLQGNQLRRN
Experimental: (§1) Purified antibodies were confirmed to bind CD3 expressed on cells using the CytoFLEX S or LX flow cytometers (Beckman Coulter). Antibodies were diluted to 25 nM in FACS buffer (PBS+2% FBS) and were incubated with CD3-expressing cells for 30 minutes at 4° C. […] The median fluorescence intensity of the binding signal for each antibody was normalized to the isotype control to obtain a fold over isotype value. An antibody with a fold over isotype (FOI) of ≥10 was considered to be positive for binding.

Row | Binder | Binding (FOI)
1 | B1 | 199
2 | B2 | 170
3 | B3 | 172
4 | B4 | 150
5 | B5 | 150
6 | B6 | 192
7 | B7 | 175
8 | B8 | 181
9 | B9 | 210
10 | B10 | 159
11 | B11 | 141
12 | B12 | 180
13 | B13 | 217
14 | B14 | 185
15 | B15 | 177
16 | B16 | 174
17 | B17 | 125
18 | B18 | 215
19 | B19 | 184
20 | B20 | 61.5
21 | B21 | 162

molecular target: T2, cynomolgus monkey CD3 expressed on cyno primary T cells (cynomolgus monkey, UniProt Q95LI5 22-198; Q95LI8 22-171; Q95LI7 23-181); experiment: flow cytometry, cyno primary T cells
T2 construct: whole, on cells; CD3 complex on purified cynomolgus monkey CD3 pan T cells; also called cyno CD3
T2 sequence (Q95LI5 22-198, chain 1 of 3): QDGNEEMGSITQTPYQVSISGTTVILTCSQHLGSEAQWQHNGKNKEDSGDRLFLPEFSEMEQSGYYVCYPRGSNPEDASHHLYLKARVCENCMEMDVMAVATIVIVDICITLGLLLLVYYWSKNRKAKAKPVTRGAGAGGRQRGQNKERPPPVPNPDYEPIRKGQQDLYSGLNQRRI
T2 sequence (Q95LI8 22-171, chain 2 of 3): as the sequence (P04234 22-171, chain 2 of 3) above, with I5V, N15K, I20V, S32T, D33N, I34N, T64A, S74N, V83L, H141R counted along it
T2 sequence (Q95LI7 23-181, chain 3 of 3): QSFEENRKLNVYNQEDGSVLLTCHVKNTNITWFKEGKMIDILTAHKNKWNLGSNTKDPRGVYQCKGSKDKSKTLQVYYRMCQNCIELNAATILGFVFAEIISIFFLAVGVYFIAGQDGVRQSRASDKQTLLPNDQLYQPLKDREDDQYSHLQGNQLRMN
Outline: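 Antibodies at 25 nM in PBS + 2% FBS were incubated with CD3-expressing cells for 30 minutes at 4° C and analysed by flow cytometry. Median fluorescence intensity was normalized to isotype control to give fold over isotype (FOI); FOI ≥10 counted as binding.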

Row | Binder | binding result
22 | B1 | no binding (tested: FOI <10 (FOI >=10 = positive); 25 nM)
23 | B2 | no binding (tested: FOI <10 (FOI >=10 = positive); 25 nM)
24 | B3 | no binding (tested: FOI <10 (FOI >=10 = positive); 25 nM)
25 | B4 | no binding (tested: FOI <10 (FOI >=10 = positive); 25 nM)
26 | B5 | no binding (tested: FOI <10 (FOI >=10 = positive); 25 nM)
27 | B6 | no binding (tested: FOI <10 (FOI >=10 = positive); 25 nM)
28 | B7 | no binding (tested: FOI <10 (FOI >=10 = positive); 25 nM)
29 | B8 | no binding (tested: FOI <10 (FOI >=10 = positive); 25 nM)
30 | B9 | no binding (tested: FOI <10 (FOI >=10 = positive); 25 nM)
31 | B10 | no binding (tested: FOI <10 (FOI >=10 = positive); 25 nM)
32 | B11 | no binding (tested: FOI <10 (FOI >=10 = positive); 25 nM)
33 | B12 | no binding (tested: FOI <10 (FOI >=10 = positive); 25 nM)
34 | B13 | no binding (tested: FOI <10 (FOI >=10 = positive); 25 nM)
35 | B14 | no binding (tested: FOI <10 (FOI >=10 = positive); 25 nM)
36 | B15 | no binding (tested: FOI <10 (FOI >=10 = positive); 25 nM)
37 | B16 | no binding (tested: FOI <10 (FOI >=10 = positive); 25 nM)
38 | B17 | no binding (tested: FOI <10 (FOI >=10 = positive); 25 nM)
39 | B18 | no binding (tested: FOI <10 (FOI >=10 = positive); 25 nM)
40 | B19 | no binding (tested: FOI <10 (FOI >=10 = positive); 25 nM)
41 | B20 | no binding (tested: FOI <10 (FOI >=10 = positive); 25 nM)
42 | B21 | no binding (tested: FOI <10 (FOI >=10 = positive); 25 nM)

molecular target: T1, human CD3 expressed on cells (Jurkat …); experiment: flow cytometry, 25 nM, human primary T cells
Experimental: as §1

Row | Binder | Binding (FOI)
43 | B1 | 217
44 | B2 | 226
45 | B3 | 224
46 | B4 | 160
47 | B5 | 162
48 | B6 | 248
49 | B7 | 245
50 | B8 | 243
51 | B9 | 267
52 | B10 | 105
53 | B11 | 55.3
54 | B12 | 250
55 | B13 | 293
56 | B14 | 266
57 | B15 | 216
58 | B16 | 203
59 | B17 | 109
60 | B18 | 297
61 | B19 | 270
62 | B20 | 73
63 | B21 | 198
